Assay results taken from the supplement of paper PMC11316812.
± gives the standard deviation of the averaged measurements.

Legend:
[1] = system: hTERT-HMEC; test: percentage of EdU-negative (G0-arrested) nuclei per well, 72 h; higher = more G0 arrest; conditions: reference: sequence is the full UniProt precursor, the tested protein was the secreted form or ectodomain
[2] = system: MCF7; test: as above; conditions: reference: sequence is the full UniProt precursor, the tested protein was the secreted form or ectodomain
[3] = protein concentration 0.0225 µM
[4] = protein concentration 0.0140425 µM
[5] = protein concentration 0.140425 µM
[6] = protein concentration 0.0105 µM
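Note: secreted proteins added to cultured cells, EdU pulse at the end, nuclei found by Hoechst imaging, EdU status from nuclear versus surrounding ring intensity ratio, PBS as neutral control.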

Sequence	percentage of EdU-negative [1, 3]	percentage of EdU-negative ([1]; protein concentration 0.225 µM)	percentage of EdU-negative [2, 3]	percentage of EdU-negative ([2]; protein concentration 0.225 µM)	further results
MRLLVLLWGCLLLPGYEALEGPEEISGFEGDTVSLQCTYREELRDHRKYWCRKGGILFSRCSGTIYAEEEGQETMKGRVSIRDSRQELSLIVTLWNLTLQDAGEYWCGVEKRGPDESLLISLFVFPGPCCPPSPSPTFQPLATTRLQPKAKAQQTQPPGLTSPGLYPAATTAKQGKTGAEAPPLPGTSQYGHERTSQYTGTSPHPATSPPAGSSRPPMQLDSTSAEDTSPALSSGSSKPRVSIPMVRILAPVLVLLSLLSAAGLIAFCSHLLLWRKEAQQATETQRNEKFCLSRLTAEEKEAPSQAPEGDVISMPPLHTSEEELGFSKFVSA [K7EL06]	5.2 ± 0.081%	5.26 ± 0.58%	26 ± 1.2%	24.7 ± 3.6%	
MHLRLISWLFIILNFMEYIGSQNASRGRRQRRMHPNVSQGCQGGCATCSDYNGCLSCKPRLFFALERIGMKQIGVCLSSCPSGYYGTRYPDINKCTKCKADCDTCFNKNFCTKCKSGFYLHLGKCLDNCPEGLEANNHTMECVSIVHCEVSEWNPWSPCTKKGKTCGFKRGTETRVREIIQHPSAKGNLCPPTNETRKCTVQRKKCQKGERGKKGRERKRKKPNKGESKEAIPDSKSLESSKEIPEQRENKQQQKKRKVQDKQKSVSVSTVH [Q9BXY4]					percentage of EdU-negative [1, 4]: 4.43 ± 0.65%; percentage of EdU-negative [1, 5]: 5.27 ± 0.29%; percentage of EdU-negative [2, 4]: 23.8 ± 0.26%; percentage of EdU-negative [2, 5]: 24.3 ± 1.6%
MSLWKKTVYRSLCLALALLVAVTVFQRSLTPGQFLQEPPPPTLEPQKAQKPNGQLVNPNNFWKNPKDVAAPTPMASQGPQAWDVTTTNCSANINLTHQPWFQVLEPQFRQFLFYRHCRYFPMLLNHPEKCRGDVYLLVVVKSVITQHDRREAIRQTWGRERQSAGGGRGAVRTLFLLGTASKQEERTHYQQLLAYEDRLYGDILQWGFLDTFFNLTLKEIHFLKWLDIYCPHVPFIFKGDDDVFVNPTNLLEFLADRQPQENLFVGDVLQHARPIRRKDNKYYIPGALYGKASYPPYAGGGGFLMAGSLARRLHHACDTLELYPIDDVFLGMCLEVLGVQPTAHEGFKTFGISRNRNSRMNKEPCFFRAMLVVHKLLPPELLAMWGLVHSNLTCSRKLQVL [Q8NFL0]					percentage of EdU-negative [1, 6]: 4.88 ± 0.47%; percentage of EdU-negative ([1]; protein concentration 0.105 µM): 6.5 ± 1.4%; percentage of EdU-negative [2, 6]: 25.6 ± 1%; percentage of EdU-negative ([2]; protein concentration 0.105 µM): 27.97 ± 0.1%
MWCIVLFSLLAWVYAEPTMYGEILSPNYPQAYPSEVEKSWDIEVPEGYGIHLYFTHLDIELSENCAYDSVQIISGDTEEGRLCGQRSSNNPHSPIVEEFQVPYNKLQVIFKSDFSNEERFTGFAAYYVATDINECTDFVDVPCSHFCNNFIGGYFCSCPPEYFLHDDMKNCGVNCSGDVFTALIGEIASPNYPKPYPENSRCEYQIRLEKGFQVVVTLRREDFDVEAADSAGNCLDSLVFVAGDRQFGPYCGHGFPGPLNIETKSNALDIIFQTDLTGQKKGWKLRYHGDPMPCPKEDTPNSVWEPAKAKYVFRDVVQITCLDGFEVVEGRVGATSFYSTCQSNGKWSNSKLKCQPVDCGIPESIENGKVEDPESTLFGSVIRYTCEEPYYYMENGGGGEYHCAGNGSWVNEVLGPELPKCVPVCGVPREPFEEKQRIIGGSDADIKNFPWQVFFDNPWAGGALINEYWVLTAAHVVEGNREPTMYVGSTSVQTSRLAKSKMLTPEHVFIHPGWKLLEVPEGRTNFDNDIALVRLKDPVKMGPTVSPICLPGTSSDYNLMDGDLGLISGWGRTEKRDRAVRLKAARLPVAPLRKCKEVKVEKPTADAEAYVFTPNMICAGGEKGMDSCKGDSGGAFAVQDPNDKTKFYAAGLVSWGPQCGTYGLYTRVKNYVDWIMKTMQENSTPRED	4.97 ± 0.22%	6.85 ± 3.7%	23.9 ± 1.2%	24.2 ± 1.2%	
MARAMAAAWPLLLVALLVLSWPPPGTGDVVVQAPTQVPGFLGDSVTLPCYLQVPNMEVTHVSQLTWARHGESGSMAVFHQTQGPSYSESKRLEFVAARLGAELRNASLRMFGLRVEDEGNYTCLFVTFPQGSRSVDIWLRVLAKPQNTAEVQKVQLTGEPVPMARCVSTGGRPPAQITWHSDLGGMPNTSQVPGFLSGTVTVTSLWILVPSSQVDGKNVTCKVEHESFEKPQLLTVNLTVYYPPEVSISGYDNNWYLGQNEATLTCDARSNPEPTGYNWSTTMGPLPPFAVAQGAQLLIRPVDKPINTTLICNVTNALGARQAELTVQVKEGPPSEHSGISRNAIIFLVLGILVFLILLGIGIYFYWSKCSREVLWHCHLCPSSTEHASASANGHVSYSAVSRENSSSQDPQTEGTR [A0A0C4DG49]	4.71 ± 0.025%	10.7 ± 2.4%	23.8 ± 1.6%	26.1 ± 2.5%	
